Osteoclast induction activity in RAW264 cells (at concentrations of 10 nM and 5 nM) (fold over mouse soluble RANKL) data for one substance are collected here from patent US20100105612A1.

This experiment deals with mouse RANK (RANKL receptor on RAW264 cells) (mouse) (UniProt O35305). The experiment is described as follows: cell-based or functional assay.
UniProt O35305, sequence (O35305 31-625): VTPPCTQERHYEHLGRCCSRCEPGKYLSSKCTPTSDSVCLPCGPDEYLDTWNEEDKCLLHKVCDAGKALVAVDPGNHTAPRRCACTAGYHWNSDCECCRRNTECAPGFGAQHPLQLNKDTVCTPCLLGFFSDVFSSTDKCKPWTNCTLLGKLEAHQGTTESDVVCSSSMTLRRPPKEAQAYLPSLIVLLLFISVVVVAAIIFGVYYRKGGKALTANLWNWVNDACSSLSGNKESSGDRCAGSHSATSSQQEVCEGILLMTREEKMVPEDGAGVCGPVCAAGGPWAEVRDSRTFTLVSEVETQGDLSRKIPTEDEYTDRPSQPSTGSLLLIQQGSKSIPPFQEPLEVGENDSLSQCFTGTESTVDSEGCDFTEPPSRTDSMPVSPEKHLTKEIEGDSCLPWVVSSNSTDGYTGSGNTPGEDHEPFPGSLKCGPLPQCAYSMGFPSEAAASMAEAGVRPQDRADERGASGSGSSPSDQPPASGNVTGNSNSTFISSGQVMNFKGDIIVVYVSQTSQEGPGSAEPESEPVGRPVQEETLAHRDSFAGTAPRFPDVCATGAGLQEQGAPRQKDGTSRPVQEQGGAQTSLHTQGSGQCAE

“GST-RANKL (fused protein of glutathione-S-transferase with human soluble RANKL residues 140-317) (ligand)” yielded an osteoclast induction activity in RAW264 cells (at concentrations of 10 nM and 5 nM) (fold over mouse soluble RANKL) greater than 2.
